Results: patent US20230295310A1 (ABCELLERA BIOLOGICS, published 2023)
Residue numbers refer to the chain shown, from its start.

B1: mAb 118 (antibody, V domains shown)
VH: EVQLVESGGGLVQPGRSLRLSCAASGFTFDDYTMHWVRQAPGKGLEWVSGISWNSGSIGYADSVKGRFTISRDNAKNSLYLQMNSLRAEDTALYYCSKDSSGYGYYLNYSLDVWGKGTTVTVSS
VL: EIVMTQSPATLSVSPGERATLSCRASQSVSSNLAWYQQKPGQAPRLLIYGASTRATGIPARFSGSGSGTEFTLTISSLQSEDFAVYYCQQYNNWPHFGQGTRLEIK
B2: mAb 126 (antibody, V domains shown)
VH: B1 VH with D30N, A40V, G59D, S97A, L107Y, N108Y, S110Y, L111M
VL: EIVMTQSPATLSVSPGERATLSCRASQSVSINLAWYQQKPGQAPRLLIYGASTRATGIPARFSGSGSGTEFTLTISSLQSEDFAVYYCQLYHNWPHFGQGTRLEIK
B3: mAb 159 (antibody, V domains shown)
VH: EVQLVESGGGLVQPGRSLRLSCAASGFTFNGYTMHWVRQVPGKGLEWVSGISWNSGSVGYADSVKGRFTISRDNAKNSLFLQMNSLRAEDTALYYCAKDSSGYGHYYYYYMDVWGKGTTVTVSS
VL: B2 VL with S30R, I31N, V85L, H92N
B4: mAb 160 (antibody, V domains shown)
VH: B3 VH with A24V, G31D, V58I, F80Y, Y95F, K116R
VL: B2 VL with S30R, I31K, H92N
B5: mAb 162 (antibody, V domains shown)
VH: B1 VH with D31N, T33A, Q82E, M83L, S97A, L107Y, S110Y, L111M
VL: B2 VL with S30R, I31S, R61K, L90Y, H92Y
B6: mAb 119 (antibody, V domains shown)
VH: B1 VH
VL: EIVMTQSPATLSVSPGERATLSCRASQSVSNLAWYQQKPGQAPRLLIYGASTRATGIPARFSGSGSGTEFTLTISSLQSEDFAVYYCQQYNNWPHFGQGTRLQIK
B7: mAb 127 (antibody, V domains shown)
VH: EVQLVESGGGLVKTGGSHRLSCVASGFSFKKAWMNWVRQAPGKGLEWVGRIKRNSDGGTTDYAAPVKGRFILSRDDSKNTLYLQMNSLKTEDTAVYYCTTLDSSSWYVGYYYMDVWGKGTTVTVSS
VL: DIQMTQSPSSVSASVGDRVTITCRASQDINNWLAWYQQKPGKAPKILIYTASNLQSGVPSRFSGSGSGTDFTLTISTLQPEDFATYFCQQAHGLPITFGQGTRLEIK
B8: mAb 129 (antibody, V domains shown)
VH: B7 VH with G10D, H18L, S55T, T59A, G68D, I71T
VL: DIHMTQSPSSVSASLGDRVTFTCRASQDINNWLAWYQQKPGKAPRLLIYTASSLQSGVPSRFSGSGSGTDFTLTISSLQPDDFATYYCQQAHSLPITFGQGTRLGIE
B9: mAb 130 (antibody, V domains shown)
VH: B7 VH with H18L, T59A, G68D, I71T
VL: B8 VL with K39R, R45K, D81E, E107K
B10: mAb 136 (antibody, V domains shown)
VH: QVQLVESGGGVVQPGRSLRLSCAASGFTFSIYGMHWVRQAPGKGLEWVAVIWHDGSNKYYADSVKGRFTISRDNSKNTLYLQMNSLRAEDTAVYYCARTGITGTKAYFYFDYWGQGTLVTVSS
VL: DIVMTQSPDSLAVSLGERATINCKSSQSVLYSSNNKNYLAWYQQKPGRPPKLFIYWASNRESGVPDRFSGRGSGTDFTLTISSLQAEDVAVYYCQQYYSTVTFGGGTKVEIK
B11: mAb 142 (antibody, V domains shown)
VH: B10 VH with I31S, H53Y, K105T, Y112S
VL: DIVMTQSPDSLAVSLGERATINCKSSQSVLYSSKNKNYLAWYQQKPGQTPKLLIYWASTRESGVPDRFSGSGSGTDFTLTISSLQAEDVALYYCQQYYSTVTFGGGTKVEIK
B12: mAb 137 (antibody, V domains shown)
VH: QVQLVESGGGVVQPGRSLRLSCAASGFTFSTYGMHWVRQAPGKGLEWVAVIWYDGSHKYYADSVKGRFTISRDNSKKTLYLQMNSLRAEDTGIYYCARTGISGNMSYFYFDHWGQGILVTVSS
VL: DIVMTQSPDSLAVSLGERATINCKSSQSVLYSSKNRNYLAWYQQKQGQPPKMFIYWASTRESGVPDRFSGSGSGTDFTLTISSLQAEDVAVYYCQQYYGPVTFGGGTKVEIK
B13: mAb 141 (antibody, V domains shown)
VH: QVQLVQSGAEVKKPGASVKVSCKASGYTFTSYYIHWVRQAPGQGLDWMGIINPSGGITGYAQKLQGRVTMTRDTSTTTVYMELSSLRSDDTAVYYCARGVRGNYYYYYMDVWGKGTTVTVSS
VL: EIVLTQSPDFQSVTPKEKVTITCRASQSIGSKLHWYQQKPDQSPKLLIKYASQSFSGVPSRFSGSGSGTDFNLTINSLEAEDAATFYCHQSSGLPYTFGQGTKLEIK
B14: mAb 145 (antibody, V domains shown)
VH: B13 VH with S31N, L64F
VL: B13 VL with Y50F, A80P
B15: mAb 285 (antibody, V domains shown)
VH: EVQLLESGGGLGQPGGSLRLSCAASGFTFSNYAMSWVRQAPGKGLEWVSVISGSGGDKNYADSVKGRFTISRDNSKNTLYLQMNSLRAEDTAVYYCAKKYSYYYYYMDVWGKGTTVTVSS
VL: SYELTQPLSVSVALGQTARITCGGNNIGSKDVHWYQQKPGQAPVLVIYRDSNRPSGIPERFSGSNSGNTATLTISSAQAGDEADYYCQVWDSRTAVFGGGTQLTAL
notes: VH/VL only
B16: mAb 287 (antibody, V domains shown)
VH: EVQLVESGGGVVRPGGSLRLSCAASGFTFDDYGMSWVRQAPGKGLEWVSGISWNGGSTGYADSVKGRFTISRDNAKNSLYLQMNSLRAEDTALYHCARDGVPVVKRRYYYYYMDVWGKGTTVTVSS
VL: B13 VL with K32S, N72T, F86Y, S92A, G93S, Y96Q, L104V
notes: VH/VL only
B17: mAb 286 (antibody, V domains shown)
VH: B16 VH with Q3K
VL: B13 VL with K32S, S65R, N72T, F86Y, S92G, G93S, Y96Q, L104V
notes: VH/VL only
B18: mAb 290 (antibody, V domains shown)
VH: B16 VH
VL: B13 VL with V19I, K32S, N72T, F86Y, S92A, G93S, Y96Q, L104V
notes: VH/VL only
B19: mAb 172 (antibody, V domains shown)
VH: B3 VH with A23T, A24T, N30D, G31D, G50D, F80Y, A97V, Y107F, Y108H
VL: DIQMTQSPSSLSASVGDRVTITCRASQSISNYLNWYQVKPGKAPKVLIYAASSLQSGVPSRFSGSGSGTDFTLTISSLQPEDFVSYYCHQSYNAPITFGQGTRLESK
notes: VH/VL only
B20: mAb 173 (antibody, V domains shown)
VH: B3 VH with N30D, G31D, G50D, F80Y, A97V, Y107F, Y108H
VL: B19 VL with A94T, S106I
notes: VH/VL only
B21: mAb 273 (antibody, V domains shown)
VH: EVQLVESGGGLVQPGESLKLSCTASGFTFSVSAIHWVRQASGKGLEWVGRIRSKANSYATAYVASVKGRFTLSRDDSKNTAYLQMNSLKTEDTAVYYCSSYYFVSGTYYNHWGQGTLVTVSS
VL: DIQMTQSPSSLSASVGDRVTITCRASQGIRYDLGWYQQKPGRAPKRLIHSVSSLQSGVPSRFSGSGSGTEFTLTISSLQPEDFATYYCLQHNVNPCTFGQGTKLEIK
notes: VH/VL only

What follows are binders tested against T1, human CD3 expressed on cells (human, UniProt P07766 23-207; P04234 22-171; P09693 23-182) (assay: flow cytometry, 25 nM).
T1 construct: whole, on cells; CD3 complex on Jurkat cells and on human primary T cells
T1 sequence (P07766 23-207, chain 1 of 3): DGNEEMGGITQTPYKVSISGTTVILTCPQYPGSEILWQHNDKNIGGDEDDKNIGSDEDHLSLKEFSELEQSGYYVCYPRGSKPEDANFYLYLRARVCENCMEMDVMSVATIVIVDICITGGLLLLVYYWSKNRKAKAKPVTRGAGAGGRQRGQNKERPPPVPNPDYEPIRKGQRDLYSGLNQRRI
T1 sequence (P04234 22-171, chain 2 of 3): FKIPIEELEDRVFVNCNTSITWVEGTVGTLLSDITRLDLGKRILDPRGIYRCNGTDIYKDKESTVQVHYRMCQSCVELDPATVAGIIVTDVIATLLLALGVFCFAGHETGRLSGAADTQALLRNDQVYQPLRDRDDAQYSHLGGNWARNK
T1 sequence (P09693 23-182, chain 3 of 3): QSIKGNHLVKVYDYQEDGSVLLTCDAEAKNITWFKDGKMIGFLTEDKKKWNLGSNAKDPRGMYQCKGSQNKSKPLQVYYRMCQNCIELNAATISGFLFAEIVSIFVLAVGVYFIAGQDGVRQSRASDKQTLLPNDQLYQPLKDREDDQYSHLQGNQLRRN
Procedure, shortened: (§1)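 Binding reported as fold over isotype: median fluorescence intensity divided by isotype control, with ≥10 scored positive. Cells were exposed to 25 nM antibody in PBS/2% FBS, 30 min, 4 °C, before flow cytometric read-out.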
For B1, the “Human primary T Cell Binding (FOI)” value was 84.7 FOI and the “Jurkat Cell Binding (FOI)” value was 83.8 FOI. In the case of B2, the “Human primary T Cell Binding (FOI)” value is reported as 97.6 FOI and the “Jurkat Cell Binding (FOI)” value is reported as 97 FOI. For B3, the “Human primary T Cell Binding (FOI)” value was 171 FOI and the “Jurkat Cell Binding (FOI)” value was 125 FOI. For B4, the “Human primary T Cell Binding (FOI)” value was 169 FOI and the “Jurkat Cell Binding (FOI)” value was 115 FOI. For B5, the “Human primary T Cell Binding (FOI)” value was 160 FOI and the “Jurkat Cell Binding (FOI)” value was 111 FOI. In the case of B6, the “Human primary T Cell Binding (FOI)” value is reported as 95.4 FOI and the “Jurkat Cell Binding (FOI)” value is reported as 90.4 FOI. For B7, the “Human primary T Cell Binding (FOI)” value was 172 FOI and the “Jurkat Cell Binding (FOI)” value was 155 FOI. With B8 the “Human primary T Cell Binding (FOI)” value was 169 FOI and the “Jurkat Cell Binding (FOI)” value was 157 FOI. B9 was tested, and the “Human primary T Cell Binding (FOI)” value was 165 FOI and the “Jurkat Cell Binding (FOI)” value was 155 FOI. In the case of B10, the “Human primary T Cell Binding (FOI)” value is reported as 86 FOI and the “Jurkat Cell Binding (FOI)” value is reported as 90.9 FOI. B11 was tested, and the “Human primary T Cell Binding (FOI)” value was 59.6 FOI and the “Jurkat Cell Binding (FOI)” value was 65.5 FOI. B12 was tested, and the “Human primary T Cell Binding (FOI)” value was 158 FOI and the “Jurkat Cell Binding (FOI)” value was 151 FOI. B13 was tested, and the “Human primary T Cell Binding (FOI)” value was 310 FOI and the “Jurkat Cell Binding (FOI)” value was 183 FOI. With B14 the “Human primary T Cell Binding (FOI)” value was 217 FOI and the “Jurkat Cell Binding (FOI)” value was 191 FOI.

Each binder was assayed against T2, human CD3 expressed on cells (Jurkat cells; human primary T cells) (human, UniProt P07766 23-207; P04234 22-171; P09693 23-182) (assay: flow cytometry, 25 nM, Jurkat cells).
T2 construct: whole, on cells
T2 sequence (P07766 23-207, chain 1 of 3): as the sequence (P07766 23-207, chain 1 of 3) above
T2 sequence (P04234 22-171, chain 2 of 3): as the sequence (P04234 22-171, chain 2 of 3) above
T2 sequence (P09693 23-182, chain 3 of 3): as the sequence (P09693 23-182, chain 3 of 3) above
Description: (§2) Purified antibodies were confirmed to bind CD3 expressed on cells using the CytoFLEX S or LX flow cytometers (Beckman Coulter). Antibodies were diluted to 25 nM in FACS buffer (PBS+2% FBS) and were incubated with CD3-expressing cells for 30 minutes at 4° C. […] The median fluorescence intensity of the binding signal for each antibody was normalized to the isotype control to obtain a fold over isotype value. An antibody with a fold over isotype (FOI) of ≥10 was considered to be positive for binding.
With B15 the “Binding (FOI)” value was 232 FOI. B16 was tested, and the “Binding (FOI)” value was 156 FOI. B17 was tested, and the “Binding (FOI)” value was 232 FOI. For B18, the “Binding (FOI)” value was 135 FOI. B19 was tested, and the “Binding (FOI)” value was 111 FOI. With B20 the “Binding (FOI)” value was 109 FOI. In the case of B21, the “Binding (FOI)” value is reported as 53.1 FOI.

What follows are binders tested against T3, cynomolgus monkey CD3 expressed on cyno primary T cells (cynomolgus monkey, UniProt Q95LI5 22-198; Q95LI8 22-171; Q95LI7 23-181) (assay: flow cytometry, cyno primary T cells).
T3 construct: whole, on cells; CD3 complex on purified cynomolgus monkey CD3 pan T cells; also called cyno CD3
T3 sequence (Q95LI5 22-198, chain 1 of 3): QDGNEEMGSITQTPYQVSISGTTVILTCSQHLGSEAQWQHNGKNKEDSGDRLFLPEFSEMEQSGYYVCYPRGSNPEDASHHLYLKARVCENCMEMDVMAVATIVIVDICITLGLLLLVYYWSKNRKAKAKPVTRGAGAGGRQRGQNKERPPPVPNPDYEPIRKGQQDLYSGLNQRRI
T3 sequence (Q95LI8 22-171, chain 2 of 3): as the sequence (P04234 22-171, chain 2 of 3) above, with I5V, N15K, I20V, S32T, D33N, I34N, T64A, S74N, V83L, H141R counted along it
T3 sequence (Q95LI7 23-181, chain 3 of 3): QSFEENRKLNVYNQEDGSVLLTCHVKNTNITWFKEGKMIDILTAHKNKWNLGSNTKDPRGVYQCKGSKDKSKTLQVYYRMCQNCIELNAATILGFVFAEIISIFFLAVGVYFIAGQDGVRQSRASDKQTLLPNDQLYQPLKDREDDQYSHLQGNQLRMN
Description: as §2
B15: no binding (tested: FOI <10 (FOI >=10 = positive); 25 nM). B16: no binding (tested: FOI <10 (FOI >=10 = positive); 25 nM). B17: no binding (tested: FOI <10 (FOI >=10 = positive); 25 nM). B18: no binding (tested: FOI <10 (FOI >=10 = positive); 25 nM).

These binders were tested against T4, cynomolgus monkey CD3 expressed on primary T cells (cynomolgus monkey, UniProt Q95LI5 22-198; Q95LI8 22-171; Q95LI7 23-181) (assay: flow cytometry, 25 nM, cyno primary T cells).
T4 construct: whole, on cells; CD3 complex on purified cynomolgus monkey T cells; also called cyno CD3
T4 sequence (Q95LI5 22-198, chain 1 of 3): as the sequence (Q95LI5 22-198, chain 1 of 3) above
T4 sequence (Q95LI8 22-171, chain 2 of 3): as the sequence (P04234 22-171, chain 2 of 3) above, with I5V, N15K, I20V, S32T, D33N, I34N, T64A, S74N, V83L, H141R counted along it
T4 sequence (Q95LI7 23-181, chain 3 of 3): as the sequence (Q95LI7 23-181, chain 3 of 3) above
Procedure, shortened: as §1
B1: no binding (tested: FOI >=10 = positive). B2: no binding (tested: FOI >=10 = positive). B3: no binding (tested: FOI >=10 = positive). B4: no binding (tested: FOI >=10 = positive). B5: no binding (tested: FOI >=10 = positive). B6: no binding (tested: FOI >=10 = positive). B7: no binding (tested: FOI >=10 = positive). B8: no binding (tested: FOI >=10 = positive). B9: no binding (tested: FOI >=10 = positive). B10: no binding (tested: FOI >=10 = positive). B11: no binding (tested: FOI >=10 = positive). B12: no binding (tested: FOI >=10 = positive). B13: no binding (tested: FOI >=10 = positive). B14: no binding (tested: FOI >=10 = positive).

What follows are binders tested against T2, human CD3 expressed on cells (Jurkat …) (assay: flow cytometry, 25 nM, human primary T cells).
Description: as §2
In the case of B15, the “Binding (FOI)” value is reported as 229 FOI. For B16, the “Binding (FOI)” value was 107 FOI. With B17 the “Binding (FOI)” value was 185 FOI. For B18, the “Binding (FOI)” value was 99.8 FOI. In the case of B19, the “Binding (FOI)” value is reported as 167 FOI. For B20, the “Binding (FOI)” value was 169 FOI. In the case of B21, the “Binding (FOI)” value is reported as 24.2 FOI.
